Experimental data taken from article PMC3074150.

How the values were obtained:
[1] = target: δ2K259A/K260A (Streptococcus pyogenes plasmid pSM19035)
[2] = target: δ2K248S (Streptococcus pyogenes plasmid pSM19035)
[3] = target: δ2K242A (Streptococcus pyogenes plasmid pSM19035)

δ2K259A/K260A (enzyme)
stoichiometry N [1]: 2

δ2K248S (enzyme)
stoichiometry N [2]: 2

δ2K242A (enzyme)
stoichiometry N [3]: 2
